In one series the test system is biotinyl-Leu-oxazolone. Put plainly: self-aminoacylation, catalytic enhancement (BLO) (fold over background); higher = more active; k-Seq, kA / k0A0; sequences stand for … in GGGAAUGGAUCCACAUCUACGAAUUC…UUCACUGCAGACUUGACGAAGCUG
The essentials: (§1)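 Each biotinyl-aminoacyl-oxazolone, at 2–1250 μM, was incubated with mutagenized RNA pools (0.43 μM) carrying a 21-nt variable region. The 50 μL reactions contained HEPES/NaCl/KCl/MgCl2/CaCl2 buffer with 5% acetonitrile at pH 6.9–7.0 and ran for 90 minutes at room temperature. After streptavidin capture, RNA was measured by qPCR in triplicate and by Illumina sequencing, and catalytic enhancement was calculated as median kA over the uncatalyzed rate from a pseudo-first-order fit of per-sequence fraction reacted.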

A further series concerns biotinyl-Trp-oxazolone. Put plainly: self-aminoacylation, catalytic enhancement (BWO) (fold over background); higher = more active; k-Seq, kA / k0A0; sequences stand for … in GGGAAUGGAUCCACAUCUACGAAUUC…UUCACUGCAGACUUGACGAAGCUG
Summed up: as §1

The subject of the next series is biotinyl-Phe-oxazolone. Put plainly: self-aminoacylation, catalytic enhancement (BFO) (fold over background); higher = more active; k-Seq, kA / k0A0; sequences stand for … in GGGAAUGGAUCCACAUCUACGAAUUC…UUCACUGCAGACUUGACGAAGCUG
Summed up: as §1

The next series relates to biotinyl-Met-oxazolone. Put plainly: self-aminoacylation, catalytic enhancement (BMO) (fold over background); higher = more active; k-Seq, kA / k0A0; sequences stand for … in GGGAAUGGAUCCACAUCUACGAAUUC…UUCACUGCAGACUUGACGAAGCUG
Summed up:
as §1

In a further series the test system is biotinyl-Val-oxazolone. Put plainly: self-aminoacylation, catalytic enhancement (BVO) (fold over background); higher = more active; k-Seq, kA / k0A0; sequences stand for … in GGGAAUGGAUCCACAUCUACGAAUUC…UUCACUGCAGACUUGACGAAGCUG
The essentials: as §1

The test system of a further series is biotinyl-Ile-oxazolone. As to the kind of experiment: self-aminoacylation, catalytic enhancement (BIO) (fold over background); higher = more active; k-Seq, kA / k0A0; sequences stand for … in GGGAAUGGAUCCACAUCUACGAAUUC…UUCACUGCAGACUUGACGAAGCUG
Summed up:
as §1

Fewer inactive variants are shown than the library holds.

For the sequence “CUUCUUCGAACAAUCGGUCUG [Fam1A.1 aminoacylation ribozyme variant]”, the self-aminoacylation worked out at 0.706 in the series with biotinyl-Leu-oxazolone; 0.443 in the series on biotinyl-Trp-oxazolone; 0.708 in the series with biotinyl-Phe-oxazolone; 0.768 in the series on biotinyl-Met-oxazolone; 0.743 in the series with biotinyl-Val-oxazolone; 0.627 with biotinyl-Ile-oxazolone.

On to “AAGUUUGCUAAUAGUCGCAGA [Fam3.1 aminoacylation ribozyme variant]”, for which the self-aminoacylation in the series on biotinyl-Leu-oxazolone came to 1.12; in the series on biotinyl-Trp-oxazolone it was 0.729; in the series on biotinyl-Phe-oxazolone, 1.77; in the series on biotinyl-Met-oxazolone, 1.03; in the series with biotinyl-Val-oxazolone, 0.914; in the series on biotinyl-Ile-oxazolone, 1.54.

As for “ACGUAUGCUAAUAGUCGCAAG [Fam3.1 aminoacylation ribozyme variant]”, the self-aminoacylation is 1.72 in the series on biotinyl-Leu-oxazolone; 1.29 in the series with biotinyl-Trp-oxazolone; 1.96 with biotinyl-Phe-oxazolone; 1.35 in the series with biotinyl-Met-oxazolone; 1.43 in the series on biotinyl-Val-oxazolone; 1.61 in the series on biotinyl-Ile-oxazolone.

“CCACACUUCAAGCAAUCACUC [Fam1B.1 aminoacylation ribozyme variant]”: the self-aminoacylation in the series with biotinyl-Leu-oxazolone is 0.43; in the series with biotinyl-Trp-oxazolone, 0.564; with biotinyl-Phe-oxazolone, 0.957; in the series on biotinyl-Met-oxazolone it was 0.509; in the series on biotinyl-Val-oxazolone, 0.669; in the series with biotinyl-Ile-oxazolone it was 0.591.

As to “AUUACCCUCGUCAUCGAGUGC [Fam2.1 aminoacylation ribozyme variant]”, the self-aminoacylation is 1.17 in the series with biotinyl-Leu-oxazolone; 0.477 with biotinyl-Trp-oxazolone; 1.29 in the series with biotinyl-Phe-oxazolone; 0.914 in the series on biotinyl-Met-oxazolone; 0.864 in the series with biotinyl-Val-oxazolone; 0.96 in the series on biotinyl-Ile-oxazolone.

Regarding “CUAAUUCAAACAAGCGGUCUG [Fam1A.1 aminoacylation ribozyme variant]”, the self-aminoacylation in the series on biotinyl-Leu-oxazolone was 0.847; in the series with biotinyl-Trp-oxazolone it was 0.632; with biotinyl-Phe-oxazolone, 0.798; with biotinyl-Met-oxazolone it was 1.1; with biotinyl-Val-oxazolone, 0.972; in the series on biotinyl-Ile-oxazolone, 0.874.

Regarding “CCACACCUCAAGCAAUCGGGC [Fam1B.1 aminoacylation ribozyme variant]”, the self-aminoacylation in the series on biotinyl-Leu-oxazolone came to 1.71; in the series on biotinyl-Trp-oxazolone, 2.11; with biotinyl-Phe-oxazolone, 1.92; with biotinyl-Met-oxazolone, 1.49; in the series with biotinyl-Val-oxazolone, 2.33; in the series with biotinyl-Ile-oxazolone, 1.86.

With “AAGUUUGCUCAUAGUCGCAAA [Fam3.1 aminoacylation ribozyme variant]”, the self-aminoacylation with biotinyl-Leu-oxazolone stood at 1.44; in the series with biotinyl-Trp-oxazolone it was 1.49; in the series on biotinyl-Phe-oxazolone, 1.45; with biotinyl-Met-oxazolone it was 1.69; in the series with biotinyl-Val-oxazolone it was 1.41; in the series on biotinyl-Ile-oxazolone it was 1.49.

With “CCACACUGCGAGCAAUCGGUC [Fam1B.1 aminoacylation ribozyme variant]”, the self-aminoacylation in the series on biotinyl-Leu-oxazolone is 1.25; with biotinyl-Trp-oxazolone, 1.21; with biotinyl-Phe-oxazolone, 3.33; with biotinyl-Met-oxazolone it was 1.07; with biotinyl-Val-oxazolone, 1.51; in the series with biotinyl-Ile-oxazolone, 1.21.

Regarding “CCACACUUCAAGCAUUCGGUC [Fam1B.1 aminoacylation ribozyme variant]”, the self-aminoacylation was 0.899 with biotinyl-Leu-oxazolone; 0.943 in the series on biotinyl-Trp-oxazolone; 0.969 in the series on biotinyl-Phe-oxazolone; 0.887 in the series with biotinyl-Met-oxazolone; 1.27 in the series with biotinyl-Val-oxazolone; 1.12 in the series with biotinyl-Ile-oxazolone.

Turning to “CCACACAUCAAGCAUUCGGUC [Fam1B.1 aminoacylation ribozyme variant]”, the self-aminoacylation with biotinyl-Leu-oxazolone amounted to 1.48; in the series on biotinyl-Trp-oxazolone it was 1.19; with biotinyl-Phe-oxazolone, 1.02; with biotinyl-Met-oxazolone, 1.6; in the series with biotinyl-Val-oxazolone, 1.64; with biotinyl-Ile-oxazolone, 1.75.

“CCACACUUCAAGCAACGGGUC [Fam1B.1 aminoacylation ribozyme variant]”: the self-aminoacylation is 0.569 with biotinyl-Leu-oxazolone; 0.464 with biotinyl-Trp-oxazolone; 0.777 with biotinyl-Phe-oxazolone; 0.626 in the series on biotinyl-Met-oxazolone; 0.81 in the series with biotinyl-Val-oxazolone; 0.624 in the series on biotinyl-Ile-oxazolone.

On to “CGACACUUCAAGCCAUCGGUC [Fam1B.1 aminoacylation ribozyme variant]”, for which the self-aminoacylation with biotinyl-Leu-oxazolone amounted to 1.17; in the series with biotinyl-Trp-oxazolone, 1.9; with biotinyl-Phe-oxazolone, 0.589; with biotinyl-Met-oxazolone, 1.17; with biotinyl-Val-oxazolone, 1.59; in the series with biotinyl-Ile-oxazolone, 1.3.

Regarding “AUUCACCUAGCGCAUCGGGUG [Fam2.2 aminoacylation ribozyme variant]”, the self-aminoacylation in the series on biotinyl-Leu-oxazolone turned out to be 2.96; in the series on biotinyl-Trp-oxazolone, 2.14; in the series with biotinyl-Phe-oxazolone, 10; with biotinyl-Met-oxazolone, 1.72; in the series on biotinyl-Val-oxazolone, 1.68; in the series with biotinyl-Ile-oxazolone, 1.55.

Regarding “AUGCACCUAGGUCAUCCGGUG [Fam2.2 aminoacylation ribozyme variant]”, the self-aminoacylation in the series on biotinyl-Leu-oxazolone was 7.51; in the series on biotinyl-Trp-oxazolone, 7.68; in the series with biotinyl-Phe-oxazolone, 57.6; in the series with biotinyl-Met-oxazolone it was 6.24; in the series with biotinyl-Val-oxazolone it was 4.06; in the series on biotinyl-Ile-oxazolone it was 4.42.

Regarding “AUUACCCUGGUCAUAGAGUGU [Fam2.1 aminoacylation ribozyme variant]”, the self-aminoacylation came out at 3.73 with biotinyl-Leu-oxazolone; 4.8 with biotinyl-Trp-oxazolone; 13.5 in the series with biotinyl-Phe-oxazolone; 4.07 in the series with biotinyl-Met-oxazolone; 2.58 in the series with biotinyl-Val-oxazolone; 2.08 in the series on biotinyl-Ile-oxazolone.

Regarding “AUAACCCUGGUCAUGGAGUGA [Fam2.1 aminoacylation ribozyme variant]”, the self-aminoacylation was found to be 4.08 in the series on biotinyl-Leu-oxazolone; 4.89 with biotinyl-Trp-oxazolone; 14.6 in the series with biotinyl-Phe-oxazolone; 4.2 in the series with biotinyl-Met-oxazolone; 2.48 with biotinyl-Val-oxazolone; 2.6 in the series with biotinyl-Ile-oxazolone.

Turning to “AUUAACCUAGCUCAUCGGGUG [Fam2.2 aminoacylation ribozyme variant]”, the self-aminoacylation with biotinyl-Leu-oxazolone turned out to be 1.65; with biotinyl-Trp-oxazolone it was 1.86; with biotinyl-Phe-oxazolone, 8.47; with biotinyl-Met-oxazolone it was 1.96; with biotinyl-Val-oxazolone, 1.79; with biotinyl-Ile-oxazolone, 1.79.

With “CUACUUAAAACAAUCGGUCAG [Fam1A.1 aminoacylation ribozyme variant]”, the self-aminoacylation in the series on biotinyl-Leu-oxazolone was determined as 0.66; with biotinyl-Trp-oxazolone, 0.384; in the series with biotinyl-Phe-oxazolone, 0.552; in the series on biotinyl-Met-oxazolone it was 0.703; in the series with biotinyl-Val-oxazolone it was 0.79; in the series on biotinyl-Ile-oxazolone, 0.636.

For “AUUACCCAGGUCAUAGAGUGA [Fam2.1 aminoacylation ribozyme variant]”, the self-aminoacylation with biotinyl-Leu-oxazolone was 9.64; in the series on biotinyl-Trp-oxazolone, 11.3; in the series on biotinyl-Phe-oxazolone, 37.5; with biotinyl-Met-oxazolone, 10.7; with biotinyl-Val-oxazolone, 5.27; in the series on biotinyl-Ile-oxazolone it was 4.85.

As for “AUUCACCUAGGUCAUGGGCUG [Fam2.2 aminoacylation ribozyme variant]”, the self-aminoacylation in the series on biotinyl-Leu-oxazolone was determined as 1.66; in the series on biotinyl-Trp-oxazolone, 1.17; with biotinyl-Phe-oxazolone it was 0.402; with biotinyl-Met-oxazolone it was 1.54; in the series on biotinyl-Val-oxazolone it was 1.33; in the series on biotinyl-Ile-oxazolone it was 1.63.

Turning to “AACUUUGCUAUUAGUCGCAAG [Fam3.1 aminoacylation ribozyme variant]”, the self-aminoacylation amounted to 2.73 in the series with biotinyl-Leu-oxazolone; 2.99 in the series with biotinyl-Trp-oxazolone; 4.36 with biotinyl-Phe-oxazolone; 2.34 in the series on biotinyl-Met-oxazolone; 2 with biotinyl-Val-oxazolone; 2.57 in the series with biotinyl-Ile-oxazolone.

Take “CCCCCCUUCAAGCAAUCGGUC [Fam1B.1 aminoacylation ribozyme variant]”: the self-aminoacylation with biotinyl-Leu-oxazolone was determined as 3.18; in the series with biotinyl-Trp-oxazolone, 44.8; in the series on biotinyl-Phe-oxazolone, 80.1; with biotinyl-Met-oxazolone, 2; in the series on biotinyl-Val-oxazolone, 2.67; in the series with biotinyl-Ile-oxazolone it was 1.88.

For “AUACACCUAGGCCAUCGGGUG [Fam2.2 aminoacylation ribozyme variant]”, the self-aminoacylation was determined as 3.51 in the series with biotinyl-Leu-oxazolone; 3.66 in the series with biotinyl-Trp-oxazolone; 12.9 in the series on biotinyl-Phe-oxazolone; 2.42 in the series on biotinyl-Met-oxazolone; 2.32 in the series with biotinyl-Val-oxazolone; 2.73 in the series on biotinyl-Ile-oxazolone.

Take “AUUACCCUGGACAUCGCGUGA [Fam2.1 aminoacylation ribozyme variant]”: the self-aminoacylation in the series on biotinyl-Leu-oxazolone was 9.65; with biotinyl-Trp-oxazolone it was 9.83; in the series on biotinyl-Phe-oxazolone it was 80; with biotinyl-Met-oxazolone, 9.04; in the series with biotinyl-Val-oxazolone, 5.5; with biotinyl-Ile-oxazolone, 4.42.

(Values after the supplement of paper PMC9233669.)
